# Paper PMC10786891, “Massively parallel profiling of RNA-targeting CRISPR-Cas13d”
# T1: EsCas13d, nuclease-dead (Eubacterium siraeum, UniProt B0MS50, R295A;H300A;R849A;H854A)
# T1 sequence: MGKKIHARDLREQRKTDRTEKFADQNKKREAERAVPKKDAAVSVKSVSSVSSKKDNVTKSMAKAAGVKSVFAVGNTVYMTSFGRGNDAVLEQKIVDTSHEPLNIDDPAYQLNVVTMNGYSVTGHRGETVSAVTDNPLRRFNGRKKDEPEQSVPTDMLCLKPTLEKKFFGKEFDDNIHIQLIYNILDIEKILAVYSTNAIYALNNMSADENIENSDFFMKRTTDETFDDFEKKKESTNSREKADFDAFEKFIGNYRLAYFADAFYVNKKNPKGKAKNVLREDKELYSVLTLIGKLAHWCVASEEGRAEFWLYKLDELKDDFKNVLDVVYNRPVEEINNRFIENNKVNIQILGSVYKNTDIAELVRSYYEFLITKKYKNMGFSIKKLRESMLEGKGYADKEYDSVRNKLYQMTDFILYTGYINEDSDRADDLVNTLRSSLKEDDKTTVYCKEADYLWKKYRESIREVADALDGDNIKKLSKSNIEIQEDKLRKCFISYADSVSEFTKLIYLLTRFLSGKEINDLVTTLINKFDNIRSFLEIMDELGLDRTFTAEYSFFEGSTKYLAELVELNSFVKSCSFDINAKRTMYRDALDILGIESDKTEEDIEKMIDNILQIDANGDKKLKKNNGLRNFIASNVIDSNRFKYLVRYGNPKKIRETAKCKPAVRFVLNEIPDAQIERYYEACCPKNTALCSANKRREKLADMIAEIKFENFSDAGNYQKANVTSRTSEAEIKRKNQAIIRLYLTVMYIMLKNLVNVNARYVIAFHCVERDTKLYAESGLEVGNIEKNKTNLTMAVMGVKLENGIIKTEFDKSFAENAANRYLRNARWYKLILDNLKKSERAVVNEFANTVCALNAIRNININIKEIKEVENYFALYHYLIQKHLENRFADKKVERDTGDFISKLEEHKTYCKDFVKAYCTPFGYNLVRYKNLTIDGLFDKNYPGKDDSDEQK
# Molecular target: T1, EsCas13d, nuclease-dead
# Assay: crRNA (strand 1, pre-loaded); Mg2+; 40 mM Tris-HCl pH 7.5, 150 mM NaCl, 6 mM MgCl2, 1 mM DTT, 0.1% Tween-20, 0.2 mg/ml BSA; 25 C; 10 min per concentration, then washed
# Conditions: tags: His6-TwinStrep-SUMO cleaved; N-terminal SNAP kept (SNAP-Surface 488); label: 3' end held by stalled T7 RNA polymerase
row,Binder,Kd [nM]
1,"target 1 insA 3' of 13,insU 3' of 13 (mixed) RNA 1: CACCCGUGCAAAAAUGCAGGGGUCUAAAACUGAGCGGAUAACCUCUCUAUGG RNA 2: GGGAAUGGAUCCACAUCUACGAAUUCGUACCAUAGAGAGAUGUUAUCCGCUCACCGAGAUCGGAAGAGCACACGU",14.2 ± 1.3
2,"target 1 insG 3' of 20,insU 3' of 7 (mixed) RNA 1: CACCCGUGCAAAAAUGCAGGGGUCUAAAACUGAGCGGAUAACCUCUCUAUGG RNA 2: GGGAAUGGAUCCACAUCUACGAAUUCGUACCAGUAGAGAGGUUAUCUCGCUCACCGAGAUCGGAAGAGCACACGU",90 ± 40
3,"target 1 U3A,C7G (mixed) RNA 1: CACCCGUGCAAAAAUGCAGGGGUCUAAAACUGAGCGGAUAACCUCUCUAUGG RNA 2: GGGAAUGGAUCCACAUCUACGAAUUCGUACCAUAGAGAGGUUAUGCGCACACCGAGAUCGGAAGAGCACACGU",6.64 ± 0.29
4,target 1 complement block 1-14 (mixed) RNA 1: CACCCGUGCAAAAAUGCAGGGGUCUAAAACUGAGCGGAUAACCUCUCUAUGG RNA 2: GGGAAUGGAUCCACAUCUACGAAUUCGUACCAUAGAGUCCAAUAGGCGAGUCCGAGAUCGGAAGAGCACACGU,~100
5,"target 1 insU 3' of 13,insG 3' of 7 (mixed) RNA 1: CACCCGUGCAAAAAUGCAGGGGUCUAAAACUGAGCGGAUAACCUCUCUAUGG RNA 2: GGGAAUGGAUCCACAUCUACGAAUUCGUACCAUAGAGAGUGUUAUCGCGCUCACCGAGAUCGGAAGAGCACACGU",9.5 ± 0.5
6,target 2 MT 5'PFS UGU 3'PFS UUU (mixed) RNA 1: CACCCGUGCAAAAUUGCAGGGGUCUAAAACCUUCUCCAAAUUGUUUCAUCCU RNA 2: GGGAAUGGAUCCACAUCUACGAAUUCUGUAGGAUGAAACAAUUUGGAGAAGUUUAGAUCGGAAGAGCACACGU,50 ± 13
7,target 2 MT 5'PFS GCU 3'PFS CUG (mixed) RNA 1: CACCCGUGCAAAAUUGCAGGGGUCUAAAACCUUCUCCAAAUUGUUUCAUCCU RNA 2: GGGAAUGGAUCCACAUCUACGAAUUCGCUAGGAUGAAACAAUUUGGAGAAGCUGAGAUCGGAAGAGCACACGU,30 ± 11
8,target 2 MT 5'PFS AAU 3'PFS AAA (mixed) RNA 1: CACCCGUGCAAAAUUGCAGGGGUCUAAAACCUUCUCCAAAUUGUUUCAUCCU RNA 2: GGGAAUGGAUCCACAUCUACGAAUUCAAUAGGAUGAAACAAUUUGGAGAAGAAAAGAUCGGAAGAGCACACGU,3.2 ± 0.5
9,target 2 MT 5'PFS CAG 3'PFS CCA (mixed) RNA 1: CACCCGUGCAAAAUUGCAGGGGUCUAAAACCUUCUCCAAAUUGUUUCAUCCU RNA 2: GGGAAUGGAUCCACAUCUACGAAUUCCAGAGGAUGAAACAAUUUGGAGAAGCCAAGAUCGGAAGAGCACACGU,10.1 ± 1.4
10,target 2 MT 5'PFS GUG 3'PFS CGC (mixed) RNA 1: CACCCGUGCAAAAUUGCAGGGGUCUAAAACCUUCUCCAAAUUGUUUCAUCCU RNA 2: GGGAAUGGAUCCACAUCUACGAAUUCGUGAGGAUGAAACAAUUUGGAGAAGCGCAGAUCGGAAGAGCACACGU,9.5 ± 0.4
11,target 2 MT 5'PFS GUG 3'PFS CGU (mixed) RNA 1: CACCCGUGCAAAAUUGCAGGGGUCUAAAACCUUCUCCAAAUUGUUUCAUCCU RNA 2: GGGAAUGGAUCCACAUCUACGAAUUCGUGAGGAUGAAACAAUUUGGAGAAGCGUAGAUCGGAAGAGCACACGU,14.7 ± 1.3
12,target 2 MT 5'PFS GGG 3'PFS UAU (mixed) RNA 1: CACCCGUGCAAAAUUGCAGGGGUCUAAAACCUUCUCCAAAUUGUUUCAUCCU RNA 2: GGGAAUGGAUCCACAUCUACGAAUUCGGGAGGAUGAAACAAUUUGGAGAAGUAUAGAUCGGAAGAGCACACGU,9.6 ± 1
13,target 2 MT 5'PFS UAU 3'PFS AUU (mixed) RNA 1: CACCCGUGCAAAAUUGCAGGGGUCUAAAACCUUCUCCAAAUUGUUUCAUCCU RNA 2: GGGAAUGGAUCCACAUCUACGAAUUCUAUAGGAUGAAACAAUUUGGAGAAGAUUAGAUCGGAAGAGCACACGU,24.8 ± 2.3
14,target 2 MT 5'PFS AUG 3'PFS CCA (mixed) RNA 1: CACCCGUGCAAAAUUGCAGGGGUCUAAAACCUUCUCCAAAUUGUUUCAUCCU RNA 2: GGGAAUGGAUCCACAUCUACGAAUUCAUGAGGAUGAAACAAUUUGGAGAAGCCAAGAUCGGAAGAGCACACGU,23.7 ± 3.5
15,target 2 MT 5'PFS UGC 3'PFS CGC (mixed) RNA 1: CACCCGUGCAAAAUUGCAGGGGUCUAAAACCUUCUCCAAAUUGUUUCAUCCU RNA 2: GGGAAUGGAUCCACAUCUACGAAUUCUGCAGGAUGAAACAAUUUGGAGAAGCGCAGAUCGGAAGAGCACACGU,66 ± 11
16,target 2 MT 5'PFS AAU 3'PFS AAC (mixed) RNA 1: CACCCGUGCAAAAUUGCAGGGGUCUAAAACCUUCUCCAAAUUGUUUCAUCCU RNA 2: GGGAAUGGAUCCACAUCUACGAAUUCAAUAGGAUGAAACAAUUUGGAGAAGAACAGAUCGGAAGAGCACACGU,5.2 ± 0.8
17,target 2 MT 5'PFS UAU 3'PFS AUG (mixed) RNA 1: CACCCGUGCAAAAUUGCAGGGGUCUAAAACCUUCUCCAAAUUGUUUCAUCCU RNA 2: GGGAAUGGAUCCACAUCUACGAAUUCUAUAGGAUGAAACAAUUUGGAGAAGAUGAGAUCGGAAGAGCACACGU,45 ± 9
18,target 2 MT 5'PFS UGC 3'PFS CGG (mixed) RNA 1: CACCCGUGCAAAAUUGCAGGGGUCUAAAACCUUCUCCAAAUUGUUUCAUCCU RNA 2: GGGAAUGGAUCCACAUCUACGAAUUCUGCAGGAUGAAACAAUUUGGAGAAGCGGAGAUCGGAAGAGCACACGU,38 ± 6
19,target 2 MT 5'PFS GUG 3'PFS CGG (mixed) RNA 1: CACCCGUGCAAAAUUGCAGGGGUCUAAAACCUUCUCCAAAUUGUUUCAUCCU RNA 2: GGGAAUGGAUCCACAUCUACGAAUUCGUGAGGAUGAAACAAUUUGGAGAAGCGGAGAUCGGAAGAGCACACGU,12.5 ± 1
20,target 2 MT 5'PFS GUG 3'PFS CGA (mixed) RNA 1: CACCCGUGCAAAAUUGCAGGGGUCUAAAACCUUCUCCAAAUUGUUUCAUCCU RNA 2: GGGAAUGGAUCCACAUCUACGAAUUCGUGAGGAUGAAACAAUUUGGAGAAGCGAAGAUCGGAAGAGCACACGU,12.8 ± 1.6
21,target 2 MT 5'PFS GAA 3'PFS CGG (mixed) RNA 1: CACCCGUGCAAAAUUGCAGGGGUCUAAAACCUUCUCCAAAUUGUUUCAUCCU RNA 2: GGGAAUGGAUCCACAUCUACGAAUUCGAAAGGAUGAAACAAUUUGGAGAAGCGGAGAUCGGAAGAGCACACGU,9.6 ± 1.5
22,target 2 MT 5'PFS AAU 3'PFS AAG (mixed) RNA 1: CACCCGUGCAAAAUUGCAGGGGUCUAAAACCUUCUCCAAAUUGUUUCAUCCU RNA 2: GGGAAUGGAUCCACAUCUACGAAUUCAAUAGGAUGAAACAAUUUGGAGAAGAAGAGAUCGGAAGAGCACACGU,5.5 ± 0.9
23,target 2 MT 5'PFS AUG 3'PFS CCG (mixed) RNA 1: CACCCGUGCAAAAUUGCAGGGGUCUAAAACCUUCUCCAAAUUGUUUCAUCCU RNA 2: GGGAAUGGAUCCACAUCUACGAAUUCAUGAGGAUGAAACAAUUUGGAGAAGCCGAGAUCGGAAGAGCACACGU,9.5 ± 1.1
24,target 2 MT 5'PFS AAU 3'PFS CCA (mixed) RNA 1: CACCCGUGCAAAAUUGCAGGGGUCUAAAACCUUCUCCAAAUUGUUUCAUCCU RNA 2: GGGAAUGGAUCCACAUCUACGAAUUCAAUAGGAUGAAACAAUUUGGAGAAGCCAAGAUCGGAAGAGCACACGU,24 ± 12
25,target 2 MT 5'PFS UAU 3'PFS AUA (mixed) RNA 1: CACCCGUGCAAAAUUGCAGGGGUCUAAAACCUUCUCCAAAUUGUUUCAUCCU RNA 2: GGGAAUGGAUCCACAUCUACGAAUUCUAUAGGAUGAAACAAUUUGGAGAAGAUAAGAUCGGAAGAGCACACGU,41 ± 7
26,target 2 MT 5'PFS UAG 3'PFS AUU (mixed) RNA 1: CACCCGUGCAAAAUUGCAGGGGUCUAAAACCUUCUCCAAAUUGUUUCAUCCU RNA 2: GGGAAUGGAUCCACAUCUACGAAUUCUAGAGGAUGAAACAAUUUGGAGAAGAUUAGAUCGGAAGAGCACACGU,2.93 ± 0.34
27,target 2 MT 5'PFS UGA 3'PFS CAC (mixed) RNA 1: CACCCGUGCAAAAUUGCAGGGGUCUAAAACCUUCUCCAAAUUGUUUCAUCCU RNA 2: GGGAAUGGAUCCACAUCUACGAAUUCUGAAGGAUGAAACAAUUUGGAGAAGCACAGAUCGGAAGAGCACACGU,15 ± 4
28,target 2 MT 5'PFS UGC 3'PFS CGA (mixed) RNA 1: CACCCGUGCAAAAUUGCAGGGGUCUAAAACCUUCUCCAAAUUGUUUCAUCCU RNA 2: GGGAAUGGAUCCACAUCUACGAAUUCUGCAGGAUGAAACAAUUUGGAGAAGCGAAGAUCGGAAGAGCACACGU,~48
